Measured values from patent US20090004111.

Molecular target: NS5A domain I-Δh (HCV NS5A N-terminal domain) (Hepatitis C virus) (UniProt Q9WMX2)
Assay: EMSA
Conditions: approximate Kd, non-specific RNA sequence; text says NS5A, construct taken as the purified domain I-Δh

UniProt Q9WMX2, sequence (Q9WMX2 1997-2188, tags or fused parts left off): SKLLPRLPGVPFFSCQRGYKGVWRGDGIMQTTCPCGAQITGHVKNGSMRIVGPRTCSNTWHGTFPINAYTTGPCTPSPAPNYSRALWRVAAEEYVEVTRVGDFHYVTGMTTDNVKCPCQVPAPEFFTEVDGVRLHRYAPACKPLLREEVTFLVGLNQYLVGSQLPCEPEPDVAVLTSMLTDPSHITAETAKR

Substance: non-specific ssRNA (plasmid polylinker transcript)
- Kd: 10 nM
